In PMC11341566 (Nature Communications, 2024):
Square brackets hold non-standard residues; d marks the D form.

What was measured:
[1] = molecular target: CP-CNDS, fluorescein-labelled (mixture of DCP1 and DCP2, mass ratio 2:3); experiment: fluorescence polarisation
trypsin = molecular target: T1, trypsin (UniProt P35030 81-304)
T1 sequence (looked up): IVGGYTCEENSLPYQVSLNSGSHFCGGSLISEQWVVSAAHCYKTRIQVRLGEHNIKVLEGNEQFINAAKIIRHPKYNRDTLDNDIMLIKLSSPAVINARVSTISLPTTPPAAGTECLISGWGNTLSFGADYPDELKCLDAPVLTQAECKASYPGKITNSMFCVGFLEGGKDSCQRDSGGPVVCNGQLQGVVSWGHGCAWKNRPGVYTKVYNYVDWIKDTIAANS

lipase = molecular target: T2, lipase (UniProt P16233 17-465)
T2 sequence (looked up): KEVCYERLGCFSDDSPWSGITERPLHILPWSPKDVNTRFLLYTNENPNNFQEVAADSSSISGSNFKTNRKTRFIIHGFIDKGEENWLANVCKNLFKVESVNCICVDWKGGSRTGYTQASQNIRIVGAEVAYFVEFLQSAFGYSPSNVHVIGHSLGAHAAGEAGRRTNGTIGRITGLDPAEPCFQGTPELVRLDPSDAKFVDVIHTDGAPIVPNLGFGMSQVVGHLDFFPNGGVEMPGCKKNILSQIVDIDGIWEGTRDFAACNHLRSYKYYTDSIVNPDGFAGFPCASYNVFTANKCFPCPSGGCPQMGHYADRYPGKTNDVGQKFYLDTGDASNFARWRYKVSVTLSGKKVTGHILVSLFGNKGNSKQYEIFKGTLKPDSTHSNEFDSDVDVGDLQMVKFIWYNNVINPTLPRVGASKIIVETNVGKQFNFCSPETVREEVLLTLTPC

chymotrypsin (enzyme)
Kd (Ac-(rada)4-NH2): 227 nM

B1: trypsin (enzyme)
chain: T1 sequence (looked up)
Kd [1]: 102 nM

B2: lipase (enzyme)
chain: T2 sequence (looked up)
Kd [1]: 251 nM

Ac-[dR][dA][dD][dA][dR][dA][dD][dA][dR][dA][dD][dA][dR][dA][dD][dA]-NH2 [Ac-(rada)4-NH2]
Kd (trypsin): ~342 nM
Kd (lipase): ~452 nM
